From US20260109776A1 (Amgen, published 2026)

T1: human TNFR1 (human, UniProt P19438 30-455)
T1 construct: whole, on cells
T1 sequence (looked up): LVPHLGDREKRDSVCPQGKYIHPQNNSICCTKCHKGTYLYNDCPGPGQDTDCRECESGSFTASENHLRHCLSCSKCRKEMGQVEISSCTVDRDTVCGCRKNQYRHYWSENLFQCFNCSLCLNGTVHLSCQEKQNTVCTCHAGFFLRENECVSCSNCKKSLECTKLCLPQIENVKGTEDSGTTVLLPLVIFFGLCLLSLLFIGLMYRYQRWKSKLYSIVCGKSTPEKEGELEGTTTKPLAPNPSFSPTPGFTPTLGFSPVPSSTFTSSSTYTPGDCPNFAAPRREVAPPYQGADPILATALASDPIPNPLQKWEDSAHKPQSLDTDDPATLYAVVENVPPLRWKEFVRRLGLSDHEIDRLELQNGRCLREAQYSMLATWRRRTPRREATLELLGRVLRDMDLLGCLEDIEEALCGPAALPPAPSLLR

T2: human TNFR2 (human, UniProt P20333 23-461)
T2 construct: whole, on cells
T2 sequence (looked up): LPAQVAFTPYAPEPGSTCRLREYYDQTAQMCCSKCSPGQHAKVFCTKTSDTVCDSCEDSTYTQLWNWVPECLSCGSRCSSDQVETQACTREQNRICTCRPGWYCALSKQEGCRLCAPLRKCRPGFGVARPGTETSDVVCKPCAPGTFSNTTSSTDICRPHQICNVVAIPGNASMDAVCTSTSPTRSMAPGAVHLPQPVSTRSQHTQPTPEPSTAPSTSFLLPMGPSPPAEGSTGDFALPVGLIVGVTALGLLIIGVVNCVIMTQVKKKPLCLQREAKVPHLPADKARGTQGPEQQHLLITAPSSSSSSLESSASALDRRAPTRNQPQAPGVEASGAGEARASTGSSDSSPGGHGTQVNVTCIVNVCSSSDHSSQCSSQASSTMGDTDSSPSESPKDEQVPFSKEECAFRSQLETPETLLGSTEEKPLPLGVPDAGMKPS

T3: human TNFR14 (human, UniProt Q92956 39-283)
T3 construct: whole, on cells
T3 sequence (looked up): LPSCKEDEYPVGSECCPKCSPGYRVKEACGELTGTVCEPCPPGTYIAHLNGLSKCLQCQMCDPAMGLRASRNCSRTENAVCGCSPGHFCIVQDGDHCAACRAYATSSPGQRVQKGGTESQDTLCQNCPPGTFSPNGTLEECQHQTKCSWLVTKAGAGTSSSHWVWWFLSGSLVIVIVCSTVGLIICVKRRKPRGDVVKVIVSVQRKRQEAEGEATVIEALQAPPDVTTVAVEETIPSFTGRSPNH

T4: cynomolgus monkey CD40 on cells (cynomolgus monkey, UniProt P25942 21-277 (human entry))
T4 construct: also called cyno CD40 on HEK293 cells; CD40 on cynomolgus monkey B cells
T4 chain: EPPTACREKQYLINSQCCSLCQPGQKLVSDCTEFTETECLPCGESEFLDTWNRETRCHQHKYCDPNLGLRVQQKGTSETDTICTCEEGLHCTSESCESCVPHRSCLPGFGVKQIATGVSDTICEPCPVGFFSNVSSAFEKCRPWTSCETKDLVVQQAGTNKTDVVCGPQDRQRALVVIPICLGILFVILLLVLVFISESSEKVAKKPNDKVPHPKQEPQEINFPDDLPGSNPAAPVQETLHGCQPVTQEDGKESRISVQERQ

T5: mouse CD40 on cells (mouse, UniProt P27512 20-289)
T5 construct: whole, on cells; also called mouse CD40 on HEK293 cells; CD40 on mouse B cells
T5 sequence (looked up): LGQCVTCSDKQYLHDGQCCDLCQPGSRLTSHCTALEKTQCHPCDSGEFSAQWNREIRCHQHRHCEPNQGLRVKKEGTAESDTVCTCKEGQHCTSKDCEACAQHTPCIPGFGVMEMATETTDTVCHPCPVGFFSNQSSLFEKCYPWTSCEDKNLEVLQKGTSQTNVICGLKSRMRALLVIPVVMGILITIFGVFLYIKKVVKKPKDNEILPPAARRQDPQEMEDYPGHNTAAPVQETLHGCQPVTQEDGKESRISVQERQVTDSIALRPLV

B1: 39C2 (antibody, IgG4, V domains shown)
VH: QVQLVQSGTEVKKPGASVKVSCKASGYTFPGYYMHWVRQAPGQGLEWMGWINPDSGGTKYTQKFQGRVTLTRDASVSTAYIDLNRLRSDDTAVYYCARERCRTTNCYLDYWGQGSLVTVSS
VL: QSALTQPASVSGSPGQSITISCTGTSSDVGNYNLVSWYQQHPGKAPKLMIYEVNRRPSGVSNRFSGSKSGNTASLTISGLQAEDEAEYYCCSYAGRDTFVVFGGGTKLTVLG
notes: also called 4887-1
B2: 4G7 (antibody, IgG4, V domains shown)
VH: QVQLVQSGAEVKKPGASVKVSCKASGYTFAGYYMHWVRQAPGQGLEWMGWINPDSGGTNFAQQFQGRVTMTRDTSISTAYMEVSRLRSDDTAVFYCAREKITMTGIYFDYWGQGTLVTVSS
VL: DIQMTQSPSSLSASVGDILTITCRASQNITTYLNWYQQKPGKAPNLLISAASRLRSGVPSRFSGSGSGTDFTLTISSLQPVDFTTFYCQQTFTTPWTFGQGTKVEIKR
notes: also called 4869-1
B3: 30A12 (antibody, IgG4, V domains shown)
VH: EVQLLESGGGLVQPGGSLRLSCAASGFTFSRNAMSWVRQAPGKGLEWVSATGGSGISTYYADSVKGRFTISRDNSKNTLYLQMNSLRAEDTAVYYCARGYSNSWWYFDYWGQGTLVTVSS
VL: QSALTQPASVSGSPGQSITISCTGTSSDVGNYNLVSWYQQHPGKAPKLMIFEVNQRPSGVSNRFSGSKSGTTASLTISGLQAADEADYFCCSYTTSSTYVIFGGGTKLTVLG
notes: also called 4878-1

Columns and labels:
human TNFR1 [1] = target: T1, human TNFR1; assay: flow cytometry, HEK293 transfectants
Experimental: (§1) The binding affinity of anti-human CD40 antibodies to human and cynomolgus monkey CD40 was measured by Octet assay (Table 3), quantifying association rate (Kon), disassociation rate (Kdis), and equilibrium binding constant (KD). Cross-reactivity of anti-CD40 antibodies to related TNF receptor superfamily (TNFRSF) members was evaluated by expressing human TNFR1, TNFR2, TNFR10, or TNFR14 on HEK293 cells by transient transfection of expression vectors encoding these genes. Binding of indicated anti-human CD40 antibody to these transfected cells was determined by flow cytometry. […] Cross-reactivity of anti-CD40 antibodies to cynomolgus monkey and mouse CD40 was evaluated by expressing cynomolgus monkey or mouse CD40 on HEK293 cells by transient transfection of expression vectors encoding these genes. Binding of indicated anti-human CD40 antibody to cells overexpressing cynomolgus monkey and mouse CD40 was determined by flow cytometry.

human TNFR2 [2] = target: T2, human TNFR2; assay: flow cytometry, HEK293 transfectants
Experimental: as §1

human TNFR14 [3] = target: T3, human TNFR14; assay: flow cytometry, HEK293 transfectants
Experimental: as §1

[4] = target: T4, cynomolgus monkey CD40 on cells; assay: flow cytometry, HEK293 transfectants vs control cells
Experimental: as §1

mouse CD40 on cells = target: T5, mouse CD40 on cells; assay: as above
Experimental: as §1

human TNFR1 [5] = target: T1, human TNFR1; assay: as above
Experimental: as §1

human TNFR2 [6] = target: T2, human TNFR2; assay: as above
Experimental: as §1

human TNFR10 = target: T6, human TNFR10 (human); assay: as above
T6 construct: whole, on cells; Name as printed is ambiguous (TNFRSF10A-D)
Experimental: as §1

human TNFR14 [7] = target: T3, human TNFR14; assay: as above
Experimental: as §1

human CD40 on cells [8] = target: T7, human CD40 on cells (human, UniProt P25942 21-277); assay: flow cytometry, labelled CD40L on CD40-293T cells, antibody at 5 ug/ml
T7 construct: also called CD40 receptor on human B cells
Experimental: (§2) Percent ligand binding inhibition was calculated as [(CD40L binding gMFI in the absence of anti-CD40)−(CD40L binding gMFI in the presence of anti-CD40)]/(CD40L binding gMFI in the absence of anti-CD40). gMFI: geometric mean fluorescent intensity. All anti-CD40 antibodies show minimal effects on the ability of CD40L to bind to the CD40 receptor (Table 7).

human CD40 on cells [9] = target: T7, human CD40 on cells; assay: flow cytometry, labelled CD40L on CD40-293T cells, antibody at 20 ug/ml
Experimental: as §2

T7 sequence (P25942 21-277 limits assumed): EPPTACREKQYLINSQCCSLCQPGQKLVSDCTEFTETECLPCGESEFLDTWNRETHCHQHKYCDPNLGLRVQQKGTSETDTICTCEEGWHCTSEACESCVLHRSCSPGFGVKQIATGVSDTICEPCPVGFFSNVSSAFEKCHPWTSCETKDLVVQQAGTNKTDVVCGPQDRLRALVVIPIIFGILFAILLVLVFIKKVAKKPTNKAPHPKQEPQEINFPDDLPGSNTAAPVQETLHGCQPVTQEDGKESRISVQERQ

| binding result (human TNFR1 [1]) | binding result (human TNFR2 [2]) | binding result (human TNFR14 [3]) | fold over control (gMFI) [4] | fold over control (gMFI) (mouse CD40 on cells) | fold over control (gMFI) (human TNFR1 [5]) | fold over control (gMFI) (human TNFR2 [6]) | fold over control (gMFI) (human TNFR10) | fold over control (gMFI) (human TNFR14 [7]) | Ligand Binding Inhibition (%) (human CD40 on cells [8]) | Ligand Binding Inhibition (%) (human CD40 on cells [9]) | Binder |
| --- | --- | --- | --- | --- | --- | --- | --- | --- | --- | --- | --- |
| no binding | no binding | no binding | 87 fold | 0.9 fold | 1 fold | 0.9 fold | 0.86 fold | 0.89 fold | -6% | 2% | B1 |
| no binding | no binding | no binding | 57 fold | 0.9 fold | 0.97 fold | 0.9 fold | 0.87 fold | 0.89 fold | 24% | 3% | B2 |
| no binding | no binding | no binding | 71 fold | 1.3 fold | 1.07 fold | 0.89 fold | 0.91 fold | 0.96 fold | -15% | -3% | B3 |
